From US20250346890A1, “LEUKEMIA TREATMENT” (Deutsches Krebsforschungszentrum, priority 2019, published 2025) come the findings set out here.

The test system of experiment [1] is ID1. The experiment in a line: qRT-PCR analysis of ID1 in HEPG2 cells. The experiment is classed as cell-based, human. The following applies: BMP4. On the procedure:
(§1) Cultured cells were lysed in Macherey-Nagel RAI buffer containing 1% β-mercaptoethanol and total RNAs were isolated using NucleoSpin RNA isolation kit (Macherey-Nagel 740955). Reverse transcription and PCR amplification were performed. Primers used in this study are listed in Supplementary Table 1. Graphs show relative gene expressions to GAPDH. […] Statistical analyses were performed using PRISM7 software with unpaired t-test or one-way ANOVA test.
In general terms: Quantitative PCR measures a nucleic acid by following its amplification.

The target of experiment [2] is T1, LGR4 (Xenopus tropicalis, UniProt B0BLW3).
T1 construct: expressed in transfected cells; host or cells: HEK293T
T1 sequence (B0BLW3 22-955): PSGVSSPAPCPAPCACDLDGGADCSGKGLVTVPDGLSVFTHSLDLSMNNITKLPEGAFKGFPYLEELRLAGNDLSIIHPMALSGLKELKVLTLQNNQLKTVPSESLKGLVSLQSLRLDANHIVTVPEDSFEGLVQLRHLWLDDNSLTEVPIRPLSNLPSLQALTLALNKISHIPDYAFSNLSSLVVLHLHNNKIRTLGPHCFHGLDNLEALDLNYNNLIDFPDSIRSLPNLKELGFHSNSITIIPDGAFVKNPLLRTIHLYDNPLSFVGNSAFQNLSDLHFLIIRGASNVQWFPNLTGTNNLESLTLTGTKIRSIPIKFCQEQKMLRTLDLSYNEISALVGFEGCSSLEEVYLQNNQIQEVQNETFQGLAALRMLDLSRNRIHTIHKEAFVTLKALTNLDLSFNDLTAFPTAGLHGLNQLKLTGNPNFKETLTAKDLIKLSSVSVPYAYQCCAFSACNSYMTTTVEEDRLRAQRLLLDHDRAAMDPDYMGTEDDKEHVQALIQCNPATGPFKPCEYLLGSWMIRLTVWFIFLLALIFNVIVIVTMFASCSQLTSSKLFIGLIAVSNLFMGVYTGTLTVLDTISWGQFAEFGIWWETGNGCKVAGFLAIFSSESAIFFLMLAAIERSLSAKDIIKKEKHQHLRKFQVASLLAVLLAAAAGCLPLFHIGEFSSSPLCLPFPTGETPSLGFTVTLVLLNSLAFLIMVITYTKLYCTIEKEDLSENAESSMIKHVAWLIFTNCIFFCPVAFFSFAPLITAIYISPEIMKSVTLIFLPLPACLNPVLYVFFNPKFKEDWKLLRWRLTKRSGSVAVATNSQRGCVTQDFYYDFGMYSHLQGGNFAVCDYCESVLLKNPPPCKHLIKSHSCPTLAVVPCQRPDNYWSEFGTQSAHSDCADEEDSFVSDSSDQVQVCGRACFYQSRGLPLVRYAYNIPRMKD
Put plainly: Cell surface binding assay in HEK293T cells transfected with LGR4. On the procedure: (§2) Cell surface binding assays were carried essentially out as previously described (Dosch et al. (1997), Development 124, 2325-2334). In brief, human ALK3-HA and Xenopus tropicalis LGR4 DNA were transfected in HEK293T cells, and incubated with 1.5 U ml^−1 conditioned media for 3 hours on ice. After several washes and crosslinking, cells were treated with 2 mM Levamisole for 20 min to inactivate endogenous AP activities and developed with BM-Purple (Sigma 11442074001). Cells were mounted with Fluoromount G. Images were obtained using LEICA DMIL microscope/Canon DS126311 camera.

For experiment [3], the target named is T2, ALK3 (Homo sapiens, UniProt P36894).
T2 construct: expressed in transfected cells; host or cells: HEK293T
T2 sequence (P36894 24-532): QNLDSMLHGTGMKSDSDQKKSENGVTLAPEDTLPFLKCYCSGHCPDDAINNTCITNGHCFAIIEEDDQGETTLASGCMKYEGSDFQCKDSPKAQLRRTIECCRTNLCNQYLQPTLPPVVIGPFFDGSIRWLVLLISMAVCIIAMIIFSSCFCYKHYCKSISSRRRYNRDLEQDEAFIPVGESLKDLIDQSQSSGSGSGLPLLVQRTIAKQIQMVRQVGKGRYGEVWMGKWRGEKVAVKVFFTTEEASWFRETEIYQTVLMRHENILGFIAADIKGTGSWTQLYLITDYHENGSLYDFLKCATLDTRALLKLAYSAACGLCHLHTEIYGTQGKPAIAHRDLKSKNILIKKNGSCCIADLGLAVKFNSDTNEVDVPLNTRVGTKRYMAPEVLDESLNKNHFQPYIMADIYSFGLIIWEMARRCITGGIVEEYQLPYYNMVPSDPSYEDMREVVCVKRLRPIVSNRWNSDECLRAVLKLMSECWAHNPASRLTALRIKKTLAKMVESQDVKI
The experiment in a line: Cell surface binding assay in HEK293T cells transfected with ALK3. On the procedure: as §2

The subject of experiment [4] is THP-1 cells. The experiment in a line: Monocyte-macrophage differentiation of THP-1 cells (FACS / qRT-PCR of CD14, CD11B). To be noted: THP-1 cells, co-treatment of ATRA with RSPO2. It counts as cell-based, human. On the procedure: as §1
For analyzing macrophage differentiation of THP-1, cells were harvested, pelleted and resuspended in ice-cold blocking buffer (PBS supplemented with 1% BSA and 0.1% NaN3). Cells were treated with Fc Receptor Binding Inhibitor as recommended by the manufacturer (eBioscience 14916173) and stained directly with FITC/APC-conjugated antibodies diluted in blocking buffer or with non-conjugated primary antibodies followed by fluorochrome-labeled secondary antibodies. Isotype-matched antibodies were used as controls. Dead cells were excluded by counterstaining with propidium iodide. For analyzing apoptosis of THP-1, cells were fixed in 4% PFA, permeabilized by MeOH and blocked with PBS supplemented with 1% BSA and 0.1% Tween-20. Cells were stained with anti-active Caspase-3 antibody and fluorochrome-labeled secondary antibody. FACS Samples were analyzed with FACSCalibur or FACSCanto (BD Biosciences). 10,000 events per samples were acquired, and results were processed with Cell Quest or FACSDiva software (BD Biosciences). For BMP4 stimulation, cells were treated with 5 and 25 ng ml^−1 recombinant human BMP4 protein (R&D systems 314-BP). 100, 300 and 1000 nM LDN […] (Tocris 6053) were used for rescue assay. For the THP-1 cell number quantification and differentiation validation in vivo, bone marrow cells were harvested from tibias of NSG mice and red blood cells were removed by ACK Lysing Buffer (Gibco A1049201). Cells were stained and analyzed as above. Here, 50,000 PI-negative events per samples were acquired.
THP-1 cells were treated with 0.3, 1.0 and 3.0 μg ml^−1 goat polyclonal anti-RSPO2 antibodies (R&D systems AF3266) or goat polyclonal GFP antibodies (ABIN 100085). After 48 hours, medium was replaced including fresh antibodies—and incubated another 24 hours. Western blot analysis and FACS analyses were performed as discussed above.
The sequences of shRSPO2 and shControl (Table 1) were synthesized, inserted into the transfer plasmid Tet-pLKO-puro (Addgene 21915) and validated by sequencing. Lentivirus was produced with the 3rd generation lentiviral system according to the protocol available at the Trono lab as described (www.epfl.ch/labs/tronolab/). THP-1 cells were infected with lentivirus with 8 μg ml^−1 Polybrene (Sigma TR-1003) and selected with 0.5 μg ml^−1 puromycin (Calbiochem 540411). Single cell clones were obtained by limiting dilutions. The shRNA expression of clones was validated by monitoring RSPO2 expression after doxycycline treatment (1.0 μg ml^−1) for 3 days.

B1: RSPO2: human R-spondin 2 protein (SEQ ID NO:1); conditioned medium or recombinant (Peprotech 120-43) (protein, listed as Homo sapiens)
chain: MQFRLFSFALIILNCMDYSHCQGNRWRRSKRASYVSNPICKGCLSCSKDNGCSRCQQKLFFFLRREGMRQYGECLHSCPSGYYGHRAPDMNRCARCRIENCDSCFSKDFCTKCKVGFYLHRGRCFDECPDGFAPLEETMECVEGCEVGHWSEWGTCSRNNRTCGFKWGLETRTRQIVKKPVKDTILCPTIAESRRCKMTMRHCPGGKRTPKAKEKRNKKKKRKLIERAQEQHSVFLATDRANQ
For B1, the “expression of ID1” value in experiment [1] is “decreased”. Also, the LGR binding entry in experiment [2] is on record as “required the FU domains but not TSP1”. The ALK3 binding result in experiment [3] is listed as “required the TSP1—but not the FU domains”. The “ATRA-induced Smad1-phosphorylation, ID1 and CD11B expression” value in experiment [4] was “reverted these effects”.
